Experiment: yeast display, Sf9 membrane polyspecificity reagent, FACS + sequencing; frameworks hold sequencing errors
Procedure, shortened: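 After 36–48 hours of galactose induction, yeast (Saccharomyces cerevisiae BJ5465) displaying a synthetic nanobody library were stained at 4 °C for 1 hour with 10% biotinylated, detergent-solubilized Sf9 membrane reagent. Streptavidin microbeads enriched the stained cells before FACS sorting into low and high (top ~1%) gates on anti-HA and streptavidin fluorescence. Each clone's polyreactivity label reflects its gate of origin.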

| Sequence | polyreactivity (PSR sort gate) |
| --- | --- |
| QVQLVESGGGLVQAGGSLRLSCAASGSIFAGYAMGWYRQAPGKERELVAAISSSGGRTYYADSVKGRFTISRDNAKNTVYLQMNSLKPVDTAVYYCAVSTYEEEYWGQGTQVTVSS | high polyreactivity |
| QVQLVESGGGLVQAGGSLRLSCAASGFIFGLYAMGWYRQAPGKEREFVAAISWSGGSTYYADSVKGRFTISRDNAKNTVYLQMNSLKPEDTAVYYCAREYHGDSRRYDYWGQGTQVTVSS | high polyreactivity |
| QVQLVESGGGLVQAGGSLRLSCAASGSIFPFYAMGWYRHAPGKERELVASISSGGSTNYADSVKGRFTISRDNAKNTVYLQMNSLKPEDTAVYYCNAVVPYRWDTWFQVVYPESYDYWGQGTQVTVSS | low polyreactivity |
| QVQLVESGGGLVQAGGSLRLSCAASGSIFDVNTMGWYRQAPGKERELVAAISRGGSTNYADSVKGRFTISRDNAKNTVYLQMNSLKPEDTAVYYCNKRYQNQYDYWGQGTQVTVSS | low polyreactivity |
| QVQLVQSVGGLVQAGGSLRLSCAASGSIFIWNAMGWYRQAPGKVRELVAAISFTGTSTYYADSVTGRFTISRDNAKNTVYLEMNSLKPEDNAVYYCNNDYRGSQYDYWGQGTQVTVSS | low polyreactivity |
| QFQLVESGGGLVQAGGSLRLSCAASGRIFGIYAMGWDRQAPGKESELVATITDSDDSTYYADSVKGRFTISRDNAKNTVYLQMNSLKPEDTAVYYCATAFSYGGGAYDYWGQGTQVTVSS | low polyreactivity |
| QVQLVESVGRLVQAGGSLRLSCAASGSIIRSYTKGWYRQAPGKEWELVAASSGRAGSTYYADSVKGRFTISRDIAKNTVYLQMPGLKPEDTAVYYCAVILGGRAQSYYWGHGTQVTVSS | high polyreactivity |
| QVQVVESGGGLVQAGGSLRLSCAASGSTFKNYAMGWYRQAPGKERELVAAIHGRGGSTYYADSVKGRFTISRDNAKNTVYLQMNSLKPEDTAVYYCAASRVHSYNPGYPRYYYWGQGTQVNVSS | high polyreactivity |
| QVQLVESGGGLVQAGGSLRLSCAASGRTFGANDMGWYRQAPGKDSELVAAITYSGGRTNYADSVKGRFTISRDNAKNSVYLQMNSLKPEDTAVYYCAAGGWRDRSRYNYWGQGTQVTVSS | high polyreactivity |
| QVQHVESVGGLVQAGGRLRLSSAASGSIFSYNAMGWYRQAPVKERQLVARITRGGDGTYYADSVMVRFTISRDNAKNTVYLQMNSLKPEDTAVYYCAGTPYWYHLRVEGGYWGQGTQVTVSS | low polyreactivity |
| HVQLQERGGGLVQAGGSLRPSCAARGTISDGVPMGWYRQAPGEERELVATTVLGATTNYADSVKGRFTISRGNAKNTVYLQMNSLNPEETAVYYCAAPLRYDKGFSYWGQGTQVTVSS | low polyreactivity |
| QVQLVESGGGLVQAGGSLRLSCAACGRTFFPYAIGWYRQAPGKERELVAAITTGDITNYADSVKGRFTISRDNAKNTVYLQMNSLKPEDTAVNYCAARGYASWSYGGYPLKLDYWGQGTQVTVSS | low polyreactivity |
| QVQLVESRGGIVQAGGSLRLTCAASGRTFRSKVMGWYRQAQGKERELVADITYSGGNTYYADSVKGRFTISRDNAKNTDYLQMNSLKPEDNAVYYCATGWSWWTFDYWGQGTQVTVSS | high polyreactivity |
| QVQLVESGGGLVQAGRSLPLSCAASGRIIELYGMGWKRPATGKERELVAAMSYGGGSTYYAESVKGRFTISRDNAKNTVYLQMNSLKPEDTAVYYCAARYRTLTKYYWGQGTQVTVSS | low polyreactivity |
| QVQLVESGGGLVQAGGSLRLSCAASGSTFSRYAMGWYRQAPGKERELVAAISSSGGSTYYADSVKGRFTISRDTAKNTVYLQMNSLKPEDTAVYYCAVSHKYYGRRDYWGQGTQVTVSS | high polyreactivity |
| QVQLVESGGGLVQAGGSLRLSCAASGFTCGSYTMGWYRQAPGKERELVAVISRSGSSTYYADSVKGRFTISRDNAKNTVYLQMNSLKPEDTAVYYCNADYSRLGYDYWGQGTQVTVSS | high polyreactivity |

| Sequence | polyreactivity (PSR sort gate) |
| --- | --- |
| QVQLEESGGGLVQAGGSLRLSCAASGRLFGDNAMGWYSQAPGKERELVAAISDSGGSTYYADSVKGRFTISRDNAKNTVYLQMNSLKPEDTAVYYCAAEYIVRWYWYYYWGQGTQVTVSS | high polyreactivity |
| QVQLVESGGGLVQAGGSLRLSCAASGSTLWFNAMGWYRQAPGKERELVAAINWSGGSTYYADSVKGRFTISRDNAKNTVYLQMNSLKPEDTAVYYCAAVYQYVHYVWYDYWGQGTQVTVSS | low polyreactivity |
| QVQLVESGGGLFQAGGSLRLSCAASGSIFDSYAMGWYRQAPGKDREVVAAISSDCGSTYYADSVKGRFTISRDNAKNTVYLQMNSLKPEDTAVYFCAVEDYSSPYDFDSWGQGTQVTVSS | low polyreactivity |
| QVQLVETGGGIVQAVGSLRLSCAASGSTFGWNAMGWNRQAPGKERELVAVISSDGRTYYADSVKGRFTISRDNAKNTVYLQMISLKPEDTAVYYCAKRAWGFGGYDYWGQGTQVTVSS | low polyreactivity |
| QVQLVESGGGLVQAGGSLRLSCAASGLTIWRYAMGWYIQAPGKERDLLAAISRSGIRTYYADSVKGRFTISRDTAKITVYLQMNSLKPEDTAVYYCAADSNAYITGRDYWGQVTQVTVSS | high polyreactivity |
| QVQLVESGGGLVQAGGSLRLSCAASGRTFQRNAMGLYRQEPGKERELVAAISTRGGSTYYADSVKGRFTISRDNAKNTVYLQMNSLKPEDTAVYYCAKDPTLTRGYKEGGGYDYLGQGTQVTVSS | high polyreactivity |
| QVQLEESGGGLVQAGGSLRLSCAASGFTFSRNAMGWYRKAPGKERQLVARISSRGGSTYYADSVKGRFTISRDNAKKTVYLQMNSLKPEDTAVYYCARDPVGTTAARYNYWGQGTQVTVSS | high polyreactivity |
| QVQLVESGGGLVQAGGSLRLSCAASGSIFRDNAMGWYRQAPGKERELVAAINVRDGDTFYADSVKGRFTISRDNAKNTVYLQMNSLKPEDTAVYYCAVPGATSYFAYDSWGQGTQVTVSS | low polyreactivity |
| QVQLVESGGGLVQAGGSLRLSCAASGSTFGTNAMGWYRQAPGKERELVAAITRGGNTYYADSVKGRFTISRDNAKNTVYLQMNSLKTEDTAVYYCNTYTRASRFDYWGQGTQVTVSS | high polyreactivity |
| QDQLVESGGGLVQAGGSLRLSCAASGSIFVIYAMGWYRPAPGKERQLVAAITTIGGRTYYADSVKGRFTISRDHAKNTVYLQMNSLKPEDTAVYYCAADIRSNRLYDGGYWGQGTQVTVSS | low polyreactivity |
| QVHLVESGGGLVPAGGSLRLTCAASGSTLWFNAMRWYRQAPGKERELVAAISFYSGSTYYSDSVKGRFTISRDNANNTVYLQMNSLKPEDTAVYYCAARRRWWGYDYWGQATQVTVSS | high polyreactivity |
| QVQLVESGGGLVQAGGSLRLSCAASGFTFFYYAMGWYRQAPGKERELVASISWSGGSTYYADSVKGRFTISRDNAKNTVYLQMNSLKPEDTAVYYCAADVPFGGDYWGQGTQVTVSS | low polyreactivity |
| QVQLVESGGGLVQAGGSLRLSCAASGLIFPYYAMGWYRQAPGKERELVATITRSGGNTYYADSVKGRFTISRDNAKNTVYLQMNSLKPEDTAVYYCATRYAGYRSYGYWGQGTQVTVLS | high polyreactivity |
| QVQIVESGGGLVQAGVSLRLSCAASGRTSDGYAMGWYRQAPGKESELVAGITEGGGDTYYADSVKGRFTISRDNAKNTVYLQMNSLKPEDTAVYYCNAVEGSRLPYDYWGQGTQVTVSS | low polyreactivity |
| QVQLVESGGGLVQAGGSLRLSCDASGSTFRANAMGWYRQAPGKERELVAAISWSGGRTYYADSVKGRFTISRDNAKNTVYLQMNSLKPEYTAVYYCAAPKLTSYDSWGQGTQVTVSS | high polyreactivity |
| QVQLVESGGVLVQAVGSLRLSCAASGRIFYPYVMGWYRPAPGKERELVASITSGGGTYYADSVKGRFTISRDNAKNTVYLQMNSLKPEDTAGYYCNALAIWSEDWDHWISYADDYSGQGTQVTVSS | low polyreactivity |

— the nanobody polyreactivity screen of Harvey et al. (2022)
